Source: patent US20180284130A1
Each block holds one substance with its values, some of them ahead of it.

Experiments:
rituximab [1] = experiment: flow cytometry; CD19 B cells in PBMC opsonised with 2.5 µg/ml rituximab, dimer 0.2 µg/ml (FIG. 14F)
[2] = target: recombinant human anti-TNP IgG2 (chimeric, TIB142 VH with human IgG2 constant region) (human) [IgG part: P01859]; experiment: ELISA; anti-TNP IgG on TNP-BSA, biotinylated dimer; EC50 as IgG concentration (FIG. 3 D, L)
rituximab [3] = experiment: flow cytometry; CD19 B cells in PBMC opsonised with 2.5 µg/ml rituximab, dimer 0.2 µg/ml (FIG. 14E)
obinutuzumab (GAZYVA) [4] = experiment: ELISA; mAb captured by F(ab')2 anti-human F(ab')2, biotinylated dimer, streptavidin-HRP (FIG. 8C)
obinutuzumab (GAZYVA) [5] = experiment: ELISA; mAb at 1000 and 315 ng/ml captured, ratio of A450 obinutuzumab/rituximab (FIG. 8H)

median fluorescence intensity (MFI) (rituximab [1]): 11000 MFI
Substance: Human rsFcγRIIIa V158 dimer (receptor)

EC50 [2]: 0.3 µg/mL | median fluorescence intensity (MFI) (rituximab [3]): 4000 MFI
Substance: Human rsFcγRIIa H131 dimer (from UniProt P12318 34-215) (receptor)

binding preference over rituximab (obinutuzumab (GAZYVA) [4]): 20 fold | binding preference over rituximab (obinutuzumab (GAZYVA) [5]): 10 fold
Substance: Human rsFcγRIIIa F158 dimer (receptor)
